Key:
[1] = biological target: N- and C-terminally tagged APC protein (cell-free expressed, Example 45) (UniProt P25054)
[2] = system: N- and C-terminally tagged MDM (cell-free expressed)
[3] = system: N- and C-terminally tagged PKA (cell-free expressed)

Chain of UniProt P25054 (P25054 1098-1696): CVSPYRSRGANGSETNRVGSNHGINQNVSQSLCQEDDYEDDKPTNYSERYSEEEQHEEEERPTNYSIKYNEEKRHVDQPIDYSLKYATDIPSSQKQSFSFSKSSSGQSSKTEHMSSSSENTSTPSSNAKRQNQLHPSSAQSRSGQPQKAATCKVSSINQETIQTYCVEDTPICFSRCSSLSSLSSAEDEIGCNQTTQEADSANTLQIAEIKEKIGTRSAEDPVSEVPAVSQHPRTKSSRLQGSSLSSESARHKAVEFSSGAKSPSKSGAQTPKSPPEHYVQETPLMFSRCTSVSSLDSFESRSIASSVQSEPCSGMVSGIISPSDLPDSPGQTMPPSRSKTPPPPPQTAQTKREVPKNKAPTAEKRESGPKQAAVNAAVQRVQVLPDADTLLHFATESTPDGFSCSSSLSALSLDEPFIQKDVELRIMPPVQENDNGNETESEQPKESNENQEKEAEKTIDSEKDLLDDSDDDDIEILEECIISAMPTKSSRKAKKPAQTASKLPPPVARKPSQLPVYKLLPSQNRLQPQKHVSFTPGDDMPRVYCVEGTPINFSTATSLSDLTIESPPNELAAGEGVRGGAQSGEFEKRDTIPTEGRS

Caspase-3
protease substrate degradation monitored by ELISA [1]: degraded ... in a time-dependent manner
protease substrate degradation monitored by ELISA [2]: degraded ... in a time-dependent manner
protease substrate degradation monitored by ELISA [3]: unaffected
